Measured values: patent publication US7329737 (DYAX, dated 2008)
Where a chain is given by its changes, count along the chain named.

B1: M0135-B05 (Fab, V domains shown)
VH: EVQLLESGGGLVQPGGSLRLSCAASGFTFSHYLMDWVRQAPGKGLEWVSVIYPSGGHTNYADSVKGRFTISRDNSKNTLYLQMNSLRAEDTAVYYCARVGVWYGMDVWGQGTTVTVSS
VL: DIQMTQSPSSLSASVGDRVTITCRASQSISTYLNWYQQKPGKAPNLLIYAASSLQSGVPSRFSGSGSGTDFTLTVSSLQPEDFGTYYCQQYNSFPFSFGQGTRLEINR
B2: M0136-F08 (Fab, V domains shown)
VH: EVQLLESGGGLVQPGGSLRLSCAASGFTFSHYKMGWVRQAPGKGLEWVSSIRPSGGATKYADSVKGRFTISRDNSKNTLYLQMNSLRAEDTAVYYCARVGIWDAFDIWGQGAMVTVSS
VL: DIQMTQSPGTLSLSPGERATLSCRASQSVSSSYLAWYQQKPGQAPRLLIYDASNRATGIPARFSGSGSGTDFTLTISSLEPEDFAVYYCQQWDTFGQGTKLEIKR
B3: M0110-H11 (Fab, V domains shown)
VH: B2 VH with G35E, S50R, A57V, A97T, V99G, I101L, A112T
VL: DIQMTQSPSSLSASVGDRVTITCRASQSISSYLNWYQQKPGKAPKLLIYAASSLQSGVPSRFSGSGSGTDFTLTISSLHPEDFATYYCQQTYSTLFTFGPGTKVHIKR
B4: M0110-D11 (Fab, V domains shown)
VH: B1 VH with D35Y, V50R, Y52G, H57W, N59K
VL: AQSELTQPASVSGSPGQSITISCTGTSTDVGGYNYVSWYQKHPGKAPKLMIYDVSNRPSGVSNRFSGSKSGNTASLTISGLQAEDEADYYCSSYTNTITVVFGGGTKLTVLG
B5: M0098-E01 (Fab, V domains shown)
VH: EVQLLESGGGLVQPGGSLRLSCAASGFTFSMYGMTWVRQAPGKGLEWVSGISPSGGRTYYADSVKGRFTISRDNSKNTLYLQMNSLRAEDTAVYYCAKHRRDYVWWTYGMDVWGQGTTVTVSS
VL: DIQMTQSPATLSLSPGERATLSCRASQSVSGFLAWYQQKPGQAPRLLIYDASNRATGIPARFSGSGSGTDFTLTITRLEPEDFAVYYCQQYGDSSPITFGPGTRLEIKR
B6: M0135-C11 (Fab, V domains shown)
VH: EVQLLESGGGLVQPGGSLRLSCAASGFTFSNYSMQWVRQAPGKGLEWVSGIRPSGGSTRYADSVKGRFTISRDNSKNTLYLQMNSLRAEDTAVYYCAVSTGGYYYGMDVWGQGTTVTVSS
VL: DIQMTQSPSSVSASVGDRVTITCRASQGISSWLAWYQQKPGKAPKLLIYAASSLQSGVPSRFSGSGSGTDFTLTISSLQPEDFATYYCQQANSFPSLTFGGGTKVEIKR
B7: M0095-A11 (Fab, V domains shown)
VH: B1 VH with H31P, L33M, D35G, V50S, Y52R, P53S, H57A, N59A, V93T
VL: DIQMTQSPATLSLSPGERATLSCRASQSVSSYLAWYQQKPGQAPRLLIYDASNRATGIPARFSGSGSGTDFTLTISSLEPEDFAVYYCQQRSNWPPYTFGQGTKLEIKR
B8: M0092-F08 (Fab, V domains shown)
VH: B1 VH with L33P, D35I, V50G, P53S, H57T, N59K
VL: DIQMTQSPATLSLSPGERATLSCGASQSVSSSYLAWYQQKPGLAPRLLIYDASSRATGIPDRFSGSGSGTDFTLTISSLQPEDFATYYCLHDYNFPFTFGPGTKVDIKR
B9: M0104-B12 (Fab, V domains shown)
VH: EVQLLESGGGLVQPGGSLRLSCAASGFTFSIYAMIWVRQAPGKGLEWVSSIYSSGGPTQYADSVKGRFTISRDNSKNTLYLQMNSLRAEDTAVYYCARGRRTYYYDSSGYYKYAAFDIWGQGTMVTVSS
VL: DIQMTQSPSSLSASVGDRVTITCRASQAISNYLAWYQQQPGKVPKLLISAASTLQSGVPSRFSGSGSGTDFTLSISSLQPEDVATYYCQTYYSVPFTFGPGTKVDFKR
B10: M0109-A11 (Fab, V domains shown)
VH: EVQLLESGGGLVQPGGSLRLSCAASGFTFSNYTMTWVRQAPGKGLEWVSVIYPSGGHTTYADSVKGRFTISRDNSKNTLYLQMNSLRAEDTAMYYCARGGRWFSLDYWGQGTLVTVSS
VL: B4 VL with T28S, V36L, K41Q, D53G, N63T, N96S, I98G, V100R, K107R
B11: M0135-E10 (Fab, V domains shown)
VH: EVQLLESGGGLVQPGGSLRLSCAASGFTFSWYRMSWVRQAPGKGLEWVSSISPSGGPTKYADSVKGRFTISRDNSKNTLYLQMNSLRAEDTAVYYCARPSGDSSVYRPFASWGQGTLVTVSS
VL: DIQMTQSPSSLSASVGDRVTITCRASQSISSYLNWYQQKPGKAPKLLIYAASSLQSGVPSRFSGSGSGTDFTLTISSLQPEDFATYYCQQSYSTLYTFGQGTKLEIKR
B12: M0130-B02 (Fab, V domains shown)
VH: B1 VH with H31N, L33S, D35V, V50R, P53S, H57S, N59H
VL: AQSALTQPASVSGSPGQSITISCTDTSGNVGSYNLVSWYQQHPDKAPKLMIFEVSRRPSGVSDRFSGSKSGNTASLTISGLQAEDEADYYCCSYAGSNTYVFGTGTKVTVLG
B13: M0097-D04 (Fab, V domains shown)
VH: EVQLLESGGGLVQPGGSLRLSCAASGFTFSHYFMHWVRQAPGKGLEWVSYISSSGGLTGYADSVKGRFTISRDNSKNTLYLQMNSLRAEDTAVYYCARRGPVYYYDSSGSHSAFDIWGQGTMVTVS
VL: AQSELTQPPSASGTPGQRVTISCSGSSSNIGSNYVYWYQQLPGMAPKLLIYRNNQRPSGVPDRFSGSKSGTSASLAISGLRSEDEADYYCAAWDDSMSGVVFGGGTKLTVLS
B14: M0093-G06 (Fab, V domains shown)
VH: EVQLLESGGGLVQPGGSLRLSCAASGFTFSNYHMDWVRQAPGKGLEWVSVIGPSGGFTRYADSVKGRFTISRDNSKNTLYLQMNSLRAEDTAVYYCARALGGSLDYWGQGTLVTVSS
VL: AQSALTQPRSVSGSLGQSVTISCTGSTSDVGGYTYVSWYQQEPGKAPKLMIHDVSKRPSGVPDRFSGSKSGNTASLIISGLQAEDEADYYCCSYAGSYSYVFGTGTKVTVLG
B15: M0108-E11 (Fab, V domains shown)
VH: EVQLLESGGGLVQPGGSLRLSCAASGFTFSNYSMMWVRQAPGKGLEWVSSIYPSGGFTKYADSVKGRFTISRDNSKNTLYLQMNSLRAEDTAVYYCARVGFYGGFVWGQGTTVTVSS
VL: B12 VL with S3Y, A4E, D25A, G28S, N29D, V30L, L35F, D63N
B16: M0127-C06 (Fab, V domains shown)
VH: EVQLLESGGGLVQPGGSLRLSCAASGFTFSNYPMHWVRQAPGKGLEWVSYIGPSGGWTRYADSVKGRFTISRDNSKNTLYLQMNSLRAEDTAVYYCARAPSGYWGQGTLVTVSS
VL: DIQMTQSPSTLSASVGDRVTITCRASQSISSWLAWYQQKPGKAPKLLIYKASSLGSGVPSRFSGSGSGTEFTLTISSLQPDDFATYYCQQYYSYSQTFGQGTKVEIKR
B17: M0105-B06 (Fab, V domains shown)
VH: EVQLLESGGGLVQPGGSLRLSCAASGFTFSHYAMGWVRQAPGKGLEWVSRIWPSGGHTQYADSVKGRFTISRDNSKNTLYLQMNSLRAEDTAMYYCATGYSSTWGAFDIWGQGTMVTVSS
VL: DIQMTQSPSSLSASVGDRVTLTCRASQSIANYLNWYQQKPGKAPKLLVYAASRLHSGVPSRFSGRGSGTDFTLTITSLEPDDLATYYCQQSHASPLTFGGGTKVEIKR
B18: M0107-D01 (Fab, V domains shown)
VH: B10 VH with N31W, T33G, T35G, Y52R, H57T, T59R, M93V, W102Y, F103Y
VL: AQSELTQPASVSGPPGQSITISCTGTSSDVGGYNYVSWYQQHPGKAPKLIIYEVSNRPSGVSYRFSASKSDNTASLTISGVQAEDEADYYCSSYKRGGTYVFGTGTTVIVL
B19: M0107-F11 (Fab, V domains shown)
VH: B1 VH with L33Q, D35H, V50S, Y52R, H57R, N59A
VL: DIQMTQSPGTLSLSPGERATLSCRASQSVSGSYLAWYQQKPGQAPSLLIYGAYSRATGIPDRFSGSGSGTDFTLTISRLEPEDFAVYYCQHYGSSPRTFGGGTKVEIKR
B20: M0101-E01 (Fab, V domains shown)
VH: EVQLLESGGGLVQPGGSLRLSCAASGFTFSPYIMSWVRQAPGKGLEWVSSIVSSGGVTLYADSVKGRFTISRDNSKNTLYLQMNSLRAEDTAVYYCTKNINLRYDILTGYFDIWGQGTTVTVSS
VL: DIQMTQSPSSVSASVGDRVTITCRAGQNIYYWLAWYQQKPGKAPQLLIYAASSLQSGVPSRFSGSGSGTDFTLTISSLQPEDFATYYCQQAKSFPVTFGGGTKVEIKR
B21: M0138-E12 (Fab, V domains shown)
VH: B17 VH with H31W, A33V, G35R, R50S, W52Y, H57Q, Q59R
VL: AQSALTQPASVSGSPGQSITISCSGTSSDVGAYYHVSWYQQHPGKAPKLMIYEVTNRPSGISNRFSGSKSGNTASLTISGLQADDEADYFCSSYTTSNTLVFGGGTKVTVLG

The binders below were run against T1, hK1 (human tissue kallikrein 1), recombinant (human, UniProt P06870 25-262) (assay: SPR).
T1 construct: Expressed in P. pastoris from KLK1 cDNA and purified; enzymatically active; also called KLK1; Recombinant (Pichia) Kallikrein

Kd [nM] | koff [s⁻¹] | kon [M⁻¹ s⁻¹] | Binder
5.9 | 0.000655 | 111000 | B1
5.97 | 0.00284 | 476000 | B2
6.17 | 0.00601 | 975000 | B3
6.38 | 0.00134 | 210000 | B4
6.8 | 0.00101 | 148000 | B5
6.85 | 0.00231 | 337000 | B6
7.22 | 0.00379 | 525000 | B7
7.27 | 0.00158 | 218000 | B8
7.41 | 0.00171 | 230000 | B9
7.45 | 0.0035 | 470000 | B10
7.57 | 0.00206 | 272000 | B11
7.8 | 0.00307 | 394000 | B12
8.28 | 0.00168 | 203000 | B13
8.4 | 0.00313 | 372000 | B14
8.5 | 0.00355 | 418000 | B15
8.69 | 0.00575 | 662000 | B16
8.81 | 0.0036 | 409000 | B17
9.06 | 0.00812 | 896000 | B18
9.71 | 0.0066 | 680000 | B19
9.74 | 0.000941 | 96600 | B20
10 | 0.00149 | 148000 | B21
